Source: article PMC9684461, “RNA-controlled nucleocytoplasmic shuttling of mRNA decay factors regulates mRNA synthesis and a novel mRNA decay pathway” (Nature Communications, 2021)
Blank lines part the entries; values can stand above or below the molecule they belong to.

T1: TAP-tagged Kap120 (S. cerevisiae, UniProt Q02932 1-1032)
T1 construct: karyopherin Kap120 of S. cerevisiae, TAP-tagged, expressed in yeast; also called Kap120-TAP; source: yeast, in extract, captured on IgG-sepharose
T1 sequence (looked up): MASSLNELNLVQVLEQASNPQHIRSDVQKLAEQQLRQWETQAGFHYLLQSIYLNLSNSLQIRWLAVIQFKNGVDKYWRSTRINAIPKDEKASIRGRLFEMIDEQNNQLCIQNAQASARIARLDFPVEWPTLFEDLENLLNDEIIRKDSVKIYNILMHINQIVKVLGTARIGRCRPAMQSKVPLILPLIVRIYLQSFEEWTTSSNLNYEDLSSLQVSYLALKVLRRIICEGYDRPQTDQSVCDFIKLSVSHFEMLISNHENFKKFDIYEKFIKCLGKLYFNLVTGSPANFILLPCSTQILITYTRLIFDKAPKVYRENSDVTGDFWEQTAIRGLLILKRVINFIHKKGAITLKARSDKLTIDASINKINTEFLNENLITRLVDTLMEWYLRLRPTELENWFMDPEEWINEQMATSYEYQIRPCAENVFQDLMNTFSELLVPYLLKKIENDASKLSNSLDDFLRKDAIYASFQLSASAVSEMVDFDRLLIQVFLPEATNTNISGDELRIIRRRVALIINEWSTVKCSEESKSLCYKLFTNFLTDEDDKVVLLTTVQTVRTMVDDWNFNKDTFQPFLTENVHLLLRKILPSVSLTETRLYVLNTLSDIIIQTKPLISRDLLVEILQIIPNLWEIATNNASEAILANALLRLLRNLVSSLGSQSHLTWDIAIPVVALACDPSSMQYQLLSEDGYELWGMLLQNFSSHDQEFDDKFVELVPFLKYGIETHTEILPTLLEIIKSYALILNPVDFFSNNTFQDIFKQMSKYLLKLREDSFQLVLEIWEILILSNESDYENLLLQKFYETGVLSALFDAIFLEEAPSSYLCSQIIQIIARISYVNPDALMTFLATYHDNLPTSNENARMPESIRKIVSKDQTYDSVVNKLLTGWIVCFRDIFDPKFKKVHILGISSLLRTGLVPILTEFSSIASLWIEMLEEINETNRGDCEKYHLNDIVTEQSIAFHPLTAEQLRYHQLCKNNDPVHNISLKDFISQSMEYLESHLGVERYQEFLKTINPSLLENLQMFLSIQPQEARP

B1: Dhh1 (natural protein, S. cerevisiae (endogenous in yeast), UniProt P39517 1-506, looked up)
chain: MGSINNNFNTNNNSNTDLDRDWKTALNIPKKDTRPQTDDVLNTKGNTFEDFYLKRELLMGIFEAGFEKPSPIQEEAIPVAITGRDILARAKNGTGKTAAFVIPTLEKVKPKLNKIQALIMVPTRELALQTSQVVRTLGKHCGISCMVTTGGTNLRDDILRLNETVHILVGTPGRVLDLASRKVADLSDCSLFIMDEADKMLSRDFKTIIEQILSFLPPTHQSLLFSATFPLTVKEFMVKHLHKPYEINLMEELTLKGITQYYAFVEERQKLHCLNTLFSKLQINQAIIFCNSTNRVELLAKKITDLGYSCYYSHARMKQQERNKVFHEFRQGKVRTLVCSDLLTRGIDIQAVNVVINFDFPKTAETYLHRIGRSGRFGHLGLAINLINWNDRFNLYKIEQELGTEIAAIPATIDKSLYVAENDETVPVPFPIEQQSYHQQAIPQQQLPSQQQFAIPPQQHHPQFMVPPSHQQQQAYPPPQMPSQQGYPPQQEHFMAMPPGQSQPQY
notes: mRNA decay factor Dhh1 of S. cerevisiae, detected with anti-Dhh1 antibodies; source: endogenous, yeast extract
B2: GFP-tagged Tail of Xrn1 (domain or fragment, S. cerevisiae, UniProt P22147 351-521, looked up)
chain: EKDDIDVEWFNKQLENISLEGERKRQRVGKKLLVKQQKKLIGSIKPWLMEQLQEKLSPDLPDEEIPTLELPKDLDMKDHLEFLKEFAFDLGLFITHSKSKGSYSLKMDLDSINPDETEEEFQNRVNSIRKTIKKYQNAIIVEDKEELETEKTIYNERFERWKHEYYHDKLK
notes: holds NLS1; also called Tail-GFP; linker domain; source: yeast, expressed under ADH1 promoter and terminator; pulled down with GFP-Trap resin and washed
B3: recombinant 6xHis-tagged Kap120 (natural protein, S. cerevisiae, UniProt Q02932 1-1032, looked up)
chain: T1 sequence (looked up)
notes: karyopherin (importin) Kap120 of S. cerevisiae; also called Kap120-6xHis; Kap120-His; source: E. coli, IPTG induced, purified (Ni-NTA)
B4: Pat1 (natural protein, S. cerevisiae (endogenous in yeast), UniProt P25644 1-796, looked up)
chain: MSFFGLENSGNARDGPLDFEESYKGYGEHELEENDYLNDETFGDNVQVGTDFDFGNPHSSGSSGNAIGGNGVGATARSYVAATAEGISGPRTDGTAAAGPLDLKPMESLWSTAPPPAMAPSPQSTMAPAPAPQQMAPLQPILSMQDLERQQRQMQQQFMNFHAMGHPQGLPQGPPQQQFPMQPASGQPGPSQFAPPPPPPGVNVNMNQMPMGPVQVPVQASPSPIGMSNTPSPGPVVGATKMPLQSGRRSKRDLSPEEQRRLQIRHAKVEKILKYSGLMTPRDKDFITRYQLSQIVTEDPYNEDFYFQVYKIIQRGGITSESNKGLIARAYLEHSGHRLGGRYKRTDIALQRMQSQVEKAVTVAKERPSKLKDQQAAAGNSSQDNKQANTVLGKISSTLNSKNPRRQLQIPRQQPSDPDALKDVTDSLTNVDLASSGSSSTGSSAAAVASKQRRRSSYAFNNGNGATNLNKSGGKKFILELIETVYEEILDLEANLRNGQQTDSTAMWEALHIDDSSYDVNPFISMLSFDKGIKIMPRIFNFLDKQQKLKILQKIFNELSHLQIIILSSYKTTPKPTLTQLKKVDLFQMIILKIIVSFLSNNSNFIEIMGLLLQLIRNNNVSFLTTSKIGLNLITILISRAALIKQDSSRSNILSSPEISTWNEIYDKLFTSLESKIQLIFPPREYNDHIMRLQNDKFMDEAYIWQFLASLALSGKLNHQRIIIDEVRDEIFATINEAETLQKKEKELSVLPQRSQELDTELKSIIYNKEKLYQDLNLFLNVMGLVYRDGEISELK
notes: mRNA decay factor Pat1 of S. cerevisiae, detected with anti-Pat1 antibodies; source: endogenous, yeast extract
B5: Cy3-labeled 40 b RNA (ssRNA)
RNA: AUGUACAGUCCGACGAACACGGAGUCGACCCGCAACGCGA

What was measured:
[1] = target: B3; assay: pull-down; purified Kap120-6xHis mixed with purified Xrn1-FLAG (WT or mutant), 1 h at 4 °C in a rotator; complex captured on Ni-NTA, Western blotting; Xrn1-FLAG intensity normalized to Kap120
[2] = target: T1, TAP-tagged Kap120; assay: co-IP; TAP-tagged Kap120 affinity purified with IgG-sepharose from extract of optimally proliferating yeast (WT or Xrn1^ΔNLS1/2 cells); co-IPed proteins by Western blotting; signals normalized to Kap120; conditions: partners not purified
[3] = target: B3; assay: pull-down; GFP-tagged Tail held on GFP-Trap resin in a small column, washed 3 times; purified Kap120-His added, 1 h at 4 °C; eluted with 2X LSB at 95 °C; conditions: both partners purified
[4] = target: T2, FLAG-tagged Xrn1 (wild type) (S. cerevisiae, UniProt P22147 1-1528); assay: pull-down; purified Kap120-6xHis mixed with purified Xrn1-FLAG (WT or mutant), 1 h at 4 °C in a rotator; complex captured on Ni-NTA, Western blotting; Xrn1-FLAG intensity normalized to Kap120; conditions: both partners purified
T2 construct: 5' to 3' exonuclease Xrn1 (alias Kem1) of S. cerevisiae, called full-length Xrn1 for the FLAG-tagged purified protein; also called Xrn1-FLAG; Xrn1^WT; source: genomically FLAG-tagged strain, in lysate, for the IP with mass spectrometry
T2 sequence (P22147 whole entry): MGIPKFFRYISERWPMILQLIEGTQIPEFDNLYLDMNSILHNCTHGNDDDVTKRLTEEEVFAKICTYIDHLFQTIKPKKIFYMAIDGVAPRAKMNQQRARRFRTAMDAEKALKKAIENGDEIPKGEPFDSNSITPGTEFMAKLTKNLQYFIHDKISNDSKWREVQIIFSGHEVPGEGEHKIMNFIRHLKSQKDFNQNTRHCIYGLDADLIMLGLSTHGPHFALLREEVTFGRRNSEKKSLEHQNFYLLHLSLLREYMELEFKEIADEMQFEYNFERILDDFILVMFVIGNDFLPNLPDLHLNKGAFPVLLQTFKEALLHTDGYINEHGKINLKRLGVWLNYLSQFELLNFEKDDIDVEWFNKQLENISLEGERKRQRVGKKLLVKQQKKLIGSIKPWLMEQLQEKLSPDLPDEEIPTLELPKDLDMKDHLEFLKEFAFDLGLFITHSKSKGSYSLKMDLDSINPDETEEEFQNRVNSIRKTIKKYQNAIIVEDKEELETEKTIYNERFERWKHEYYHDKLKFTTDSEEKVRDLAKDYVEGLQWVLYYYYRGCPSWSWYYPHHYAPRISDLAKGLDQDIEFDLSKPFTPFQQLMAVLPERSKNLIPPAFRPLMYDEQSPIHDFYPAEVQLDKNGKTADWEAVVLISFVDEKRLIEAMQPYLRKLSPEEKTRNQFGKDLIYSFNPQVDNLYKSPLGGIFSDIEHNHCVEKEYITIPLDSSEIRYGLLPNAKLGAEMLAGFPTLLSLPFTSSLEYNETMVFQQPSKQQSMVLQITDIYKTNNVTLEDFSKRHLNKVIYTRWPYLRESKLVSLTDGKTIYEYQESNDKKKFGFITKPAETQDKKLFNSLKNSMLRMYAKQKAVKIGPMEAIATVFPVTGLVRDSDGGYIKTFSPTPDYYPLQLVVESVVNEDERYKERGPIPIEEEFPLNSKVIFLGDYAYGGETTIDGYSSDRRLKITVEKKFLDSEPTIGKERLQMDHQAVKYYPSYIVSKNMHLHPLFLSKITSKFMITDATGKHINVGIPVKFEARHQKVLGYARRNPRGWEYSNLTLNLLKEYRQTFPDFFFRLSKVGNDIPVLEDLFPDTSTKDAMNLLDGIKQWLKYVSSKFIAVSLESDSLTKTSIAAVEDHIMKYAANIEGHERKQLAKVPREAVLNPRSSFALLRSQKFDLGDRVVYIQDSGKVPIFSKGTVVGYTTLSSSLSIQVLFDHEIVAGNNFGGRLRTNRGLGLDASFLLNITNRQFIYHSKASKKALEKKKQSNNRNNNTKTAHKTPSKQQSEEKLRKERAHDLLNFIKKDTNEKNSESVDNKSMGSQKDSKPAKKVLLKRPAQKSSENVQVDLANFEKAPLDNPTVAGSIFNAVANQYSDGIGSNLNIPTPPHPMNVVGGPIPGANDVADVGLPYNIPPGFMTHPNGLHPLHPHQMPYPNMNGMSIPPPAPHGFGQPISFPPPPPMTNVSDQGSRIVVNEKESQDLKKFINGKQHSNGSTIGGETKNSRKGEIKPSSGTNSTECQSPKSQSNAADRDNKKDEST

[5] = target: Xrn1 WT (Saccharomyces cerevisiae, UniProt P22147 1-1528); assay: pull-down on FLAG beads, competition by Kap120; Kap120 prevents RNA binding dose-dependently; EMSA: 50 mM Tris-HCl pH 7.4, 150 mM NaCl, 2 mM DTT, 1 mM EDTA, 30 min at room temperature, 6% native PAGE in 0.5x TBE; pull-downs with RNA: 2 mM EDTA, 1 h at 4; conditions: protein: native; tags: FLAG; label: Cy3
Xrn1 WT, sequence (P22147 whole entry): as above

fold weaker than Xrn1^WT-Kap120 [1]: 4.5 fold
Molecule: FLAG-tagged Xrn1^ΔNLS1/2 (from UniProt P22147 1-1528) (enzyme)

Molecule: B1
fold reduction of the co-IP in Xrn1^ΔNLS1/2 cells against WT cells [2]: ~5 fold

Molecule: B2
binding result [3]: binds

Molecule: B3
binding result [4]: binds

Molecule: B4
fold reduction of the co-IP in Xrn1^ΔNLS1/2 cells against WT cells [2]: ~5 fold

Molecule: B5
binding result [5]: binds
